Data: the RNAGym collection of RNA variant scans (doi:10.1021/acssynbio.7b00057)

B1: Pistol ribozyme (parent)
chain: GGGUCGUUGUUCCAUAAUCGCGUGGAUAUGGCACGCAAGUUUCUACCGGGCACCGUAAAUGUCCGACUGGAGCCGUUCGGGCGGCUAUAAACAGACCUCAGGCCCGAAGCGUGGCGGCACCUGCCGCCGGUGGUAAAAAAGAUCGGAAGAGCACACGUCU

Variants of: B1
Assay: aptazyme ON/OFF ratio, guanine; higher = stronger switching; co-transcriptional cleavage with and without guanine

Aptazyme ON/OFF ratio, 1.12:
U7A G9C U11C C12U C13G
U7A G9C U10C U11A C13G
U7A G9C U10A U11C C12U C13U
U7A G9C U10A C12U C13U
U7A G9C C13U
U7A G9C U10A U11G C12G C13G
U7A G9C U11G C12G C13U

Aptazyme ON/OFF ratio, 1.54:
U7A G9A U11A C12U

Aptazyme ON/OFF ratio, 1.42:
U7A G9A U11A C12U C13U
U7A G9C U11G C12U C13A

Aptazyme ON/OFF ratio, 1.02:
U7A G9C C13A
U7A G9A U11C
U7A G9C U11A C13A
U7A G9C U11C C13U

Aptazyme ON/OFF ratio, 1.06:
U7A G9C U10G U11A C12G
U7A G9C C12A
U7A G9C C13G
U7A G9C U10A U11G C12G C13A
U7A G9C U11C C12G
U7A G9C U10G U11G C12A C13G
U7A G9C U10C U11G C12U C13U
U7A G9C U10C U11A C12A C13G
U7A G9C U10G U11C C13A
U7A G9C U10G U11A C12U C13A
U7A G9C U10C U11G C12U
U7A G9C U10G U11C C12A C13U
U7A G9A U10G U11G C12A
U7A G9C U10G U11G

Aptazyme ON/OFF ratio, 1.15:
U7A G9A U11C C12G C13U
U7A G9C U10G C13A

Aptazyme ON/OFF ratio, 1.21:
U7A G9A U10G U11C C12U C13U

Aptazyme ON/OFF ratio, 1.86:
U7A G9U

Aptazyme ON/OFF ratio, 1.32:
U7A G9C U10G
U7A G9C U11G C12U C13U

Aptazyme ON/OFF ratio, 1.19:
U7A G9C U11G C12A
U7A G9A U11A C12G C13A

Aptazyme ON/OFF ratio, 1.33:
U7A G9C U10G C13U
U7A G9A U10G U11G C12A C13U

Aptazyme ON/OFF ratio, 1.11:
U7A G9C U10G C12G
U7A G9C U10A C12U C13G
U7A G9C U10G U11G C12A C13A
U7A G9C U11A

Aptazyme ON/OFF ratio, 1.22:
U7A G9A U11A C12U C13G
U7A G9A U11C C12U C13U
U7A G9A U11A C12A C13A

Aptazyme ON/OFF ratio, 1.36:
U7A G9C U11G C12G
U7A G9C U11G C12U C13G

Aptazyme ON/OFF ratio, 1.1:
U7A G9C U10G U11A C12A
U7A G9C U10A U11C C12U C13A
U7A G9C C12U
U7A G9A U11G C12A C13A
U7A G9C C12A C13U
U7A G9C U11G C12A C13A
U7A G9C U10G C12G C13U
U7A G9C U10G C12G C13G
U7A G9C U10C U11G C12G
U7A G9A U11C C12U C13A

Aptazyme ON/OFF ratio, 1.28:
U7A G9A U11G C12A C13U
U7A G9A U11G C12A C13G
U7A G9A U11A C12G C13U

Aptazyme ON/OFF ratio, 1.46:
U7A G9A U11A

Aptazyme ON/OFF ratio, 2.19:
U7A G9A U11G C12U

Aptazyme ON/OFF ratio, 1.2:
U7A G9A U11G C12U C13G
U7A G9C U10G C12U
U7A G9A U10G U11G C12A C13A
U7A G9A U10G U11G C12G C13A

Aptazyme ON/OFF ratio, 2.21:
U7A G9C U10C

Aptazyme ON/OFF ratio, 1.38:
U7A G9C U10A
U7A G9A U10G U11G C12G

Aptazyme ON/OFF ratio, 1.17:
U7A G9C U10C C12U
U7A G9A U11C C12G C13G
U7A G9A U11C C12A C13A

Aptazyme ON/OFF ratio, 1.47:
U7A G9A U10G U11G C12U

Aptazyme ON/OFF ratio, 1.07:
U7A G9C U10C U11A C13A
U7A G9C U10C C12G
U7A G9C U10A U11G C12U
U7A G9A U11C C13A
U7A G9C U10A U11A C12A C13G
U7A G9C C12A C13A
U7A G9C U10G U11C C12U C13G
U7A G9C U11G C13G
U7A G9C U11A C13U
U7A G9C U10G C12G C13A
U7A G9C U10C U11A C12A C13A
U7A G9C U11C
U7A G9C U10G U11A C12U C13G
U7A G9C U11C C12G C13A

Aptazyme ON/OFF ratio, 1.13:
U7A G9C U10A U11C C12U C13G
U7A G9C U10A U11A C12A C13A
U7A G9C U11G C13A

Aptazyme ON/OFF ratio, 1.05:
U7A G9C U10G U11C C12U C13A
U7A G9C U10G U11C C13G
U7A G9C U10G U11A C12U C13U
U7A G9C U10G U11C C12A C13A
U7A G9C U10G U11C C12A C13G

Aptazyme ON/OFF ratio, 1.09:
U7A G9C U10C U11A C13U
U7A G9C U10G C12A
U7A G9C U10A U11G C12G
U7A G9C U10A U11A C12A C13U
U7A G9C U10G U11C C12U C13U
U7A G9C U11C C12A
U7A G9C U11C C12U
U7A G9A U10G U11G C13U
U7A G9A U10G U11G C12G C13G
U7A G9C U11C C12G C13U
U7A G9C U11C C12G C13G
U7A G9C U10G C12A C13U
U7A G9C U10G C12A C13G

Aptazyme ON/OFF ratio, 1.67:
U7A G9A U11G

Aptazyme ON/OFF ratio, 1.23:
U7A G9A U11A C12G

Aptazyme ON/OFF ratio, 1.25:
U7A G9C U11G C13U
U7A G9A U10G U11G C13G
U7A G9A U10G U11G C13A
U7A G9C

Aptazyme ON/OFF ratio, 1.24:
U7A G9A U11A C12U C13A

Aptazyme ON/OFF ratio, 1.57:
U7A G9C U11G C12U

Aptazyme ON/OFF ratio, 1.04:
U7A G9C U11C C12U C13A
U7A G9C U10G U11A C12U
U7A G9C U10C C12A
U7A G9C U10A U11G C12A
U7A G9C C12A C13G
U7A G9C U10C U11G C12U C13G
U7A G9C U10C U11G C12U C13A
U7A G9C U10C U11G C12A
U7A G9C U11C C13A
U7A G9C U11C C13G
U7A G9C U11A C12G C13A
U7A G9C U10C U11C C12U

Aptazyme ON/OFF ratio, 1.08:
U7A G9C U10A C13G
U7A G9C C12G
U7A G9A U11C C13G
U7A G9C U10G U11G C12A C13U
U7A G9C U11A C13G
U7A G9C U11A C12G C13U
U7A G9C U11A C12G C13G
U7A G9C U10G C12A C13A

Aptazyme ON/OFF ratio, 1.34:
U7A G9A U11G C12U C13A
U7A G9A U11A C12A

Aptazyme ON/OFF ratio, 1.29:
U7A G9A U11G C12G
U7A G9C U11G C12A C13U
U7A G9A U10G U11G C12A C13G

Aptazyme ON/OFF ratio, 1.18:
U7A G9A U11C C12G C13A
U7A G9C U10A C13U
U7A G9C U10A U11G C12G C13U
U7A G9A U11G C12A
U7A G9A U10G U11C C12U C13G

Aptazyme ON/OFF ratio, 1.03:
U7A G9A U11C C13U
U7A G9C U10C U11A C12A C13U
U7A G9C U10G U11C C13U
U7A G9C U10C U11C C12G
U7A G9C U10G U11A
U7A G9C U10G U11C

Aptazyme ON/OFF ratio, 1.27:
U7A G9A U11G C12U C13U
U7A G9A U11C C12U C13G

Aptazyme ON/OFF ratio, 1.16:
U7A G9C U11C C12U C13U
U7A G9C U10A C13A
U7A G9C U11G C12G C13A
U7A G9A U11C C12A C13U
U7A G9A U11A C12G C13G
U7A G9A U10G U11G C12G C13U

Aptazyme ON/OFF ratio, 1.41:
U7A G9C U11G

Aptazyme ON/OFF ratio, 1.14:
U7A G9C U10A C12U C13A
U7A G9C U10G C13G
U7A G9C U11G C12A C13G
U7A G9C U11G C12G C13G
U7A G9A U11C C12A C13G

Aptazyme ON/OFF ratio, 1.01:
U7A G9C U10C U11C C12A
